Experimental data published in the supplement of paper PMC10567573.

B1: WDR41 (parent)
chain: HVGELIIWDALDWTMQAYERNFWD
B2: NR2F2 (parent)
chain: NIPFFPDLQITDQVALLRLTWSEL

Variants of: B1
Experiment: protein stability index of a GFP-peptide fusion (GPS, HEK-293T) (PSI 1-6); higher = more stable
Details: c terminus: a fixed tail appended
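Further: lentivirally expressed fusions sorted by FACS into six bins by GFP to DsRed ratio, PSI derived from sequencing read proportions per bin multiplied by bin number.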

Protein stability index of substitutions, site by site:
D24: K 1.4

Variants of: B2
Experiment: as above
Details: c terminus: a fixed tail appended

Protein stability index, by site and new letter:
L8: F 3.11, E 2.11, P 2.25, C 1.92, A 2.32, M 2.51, G 1.47, V 2.09, T 2.73, Y 2.05, W 2.64, N 1.86, K 2.7, D 1.98, I 2.92, S 1.82, R 1.99, Q 2.22, H 2
F4: R 1.37, S 2.04, C 2.63, L 3.09, E 2.22, N 2.79, W 1.44, D 2.44, V 2.42, M 2.26, G 2.2, A 2.34, I 2.63, H 2.35, T 2.03, P 2.58, Y 2.56, K 2.12, Q 2.62
P6: R 1.51, Q 2.32, N 2.81, F 3.43, D 2.23, C 1.8, A 2.97, T 2.77, G 3.94, V 3.65, I 3.02, Y 3.14, H 2.31, K 2, S 2.52, E 2.5, M 2.25
D7: R 2.46, W 4.12, E 2.4, M 3.45, T 4.43, I 2.86, F 2.25, P 2.46, K 2.03, A 1.65, G 3.35, C 2.67, Y 2.79, N 2.78, L 2.88, V 2, H 2.53, S 3.27, Q 3.44
Q9: S 2.83, G 4.13, F 2.56, M 2.9, H 2.84, P 1.93, W 2.96, V 4.4, E 2.15, R 2.36, A 2.86, N 2.63, C 2.34, I 1.92, K 1.89, D 2.5, Y 2.88, T 2.26, L 3.06
I2: D 2.85, E 2.07, Y 1.47, K 2.25, H 2.1, N 2.02, Q 1.78, S 2.38, M 2.5, P 2.9, W 3.13, G 1.46, F 2.28, V 2.03, A 1.05, C 2.42, T 2.01, L 1.88, R 1.94
I10: C 2.15, F 2.95, E 1.68, A 1.75, D 1.68
N1: L 2.23, H 2.44, E 2.36, S 1.75, P 2.45, M 3.01, W 2.72, K 2.26, R 4.3, D 3.27, Q 1.1, F 3.02, T 2.02, C 2.81, Y 2.74
F5: D 2, I 2.26, V 2.41, Y 2.26, G 1.7, P 1.49, S 2.16, H 1.79, C 3.66, A 1.98, L 1.56, K 2.17, Q 2.13, N 1.73, M 1.78, W 1.68, E 1.67, R 2.34, T 1.49
P3: I 2.13, A 3.65, G 2.86, W 3.62, E 2.12, N 2.28, L 1.92, Q 3.08, S 1.41, V 3.79, H 1.82, T 2.46, K 3.61, C 2.88, D 2.43
